From patent publication US20230303699A1 (EXELIXIS, published 2023) come the findings set out here.

One assay has as its target T1, Mouse PD-L1 (mouse, UniProt Q9EP73 19-238, biotinylated).
T1 construct: Bought, biotinylated and immobilized on a streptavidin sensor; also called mPD-L1; Acro Cat. No. PD1-M5220
The experiment in a line: Octet BLI; biotinylated mouse PD-L1 on streptavidin sensor. Background: In BLI a coated tip is dipped into the sample, and binding shifts an interference pattern.

The target of assay [1] is T2, human PD-L1-His tag (extracellular domain) (human, UniProt Q9NZQ7 19-238).
T2 construct: Bought from Acro Biosystems; also called Acro Cat. No. PD1H5229; soluble antigen
T2 sequence (Q9NZQ7 19-238): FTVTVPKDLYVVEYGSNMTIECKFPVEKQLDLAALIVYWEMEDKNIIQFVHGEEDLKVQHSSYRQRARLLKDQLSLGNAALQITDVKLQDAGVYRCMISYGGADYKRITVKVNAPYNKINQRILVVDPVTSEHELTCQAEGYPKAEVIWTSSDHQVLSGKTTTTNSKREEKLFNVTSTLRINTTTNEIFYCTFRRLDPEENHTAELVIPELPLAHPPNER
The experiment in a line: Octet BLI, monovalent; IgG on Fc capture sensor, soluble PD-L1-His. From the text:
The bivalent interaction of binders to the biotinylated human PD-L1 (see Example 1) immobilized on a streptavidin biosensor was monitored using an Octet (Pall ForteBio) instrument. To monitor monovalent interaction, full-length IgG molecule was immobilized to a Fc capture biosensor and its interaction with soluble antigen was monitored using an Octet instrument.
First, the antibodies were immobilized on an Fc capture sensor. In the next association step, the binding interaction of PD-L1 (Acro Cat. No. PD1H5229 (PD-L1-His tag)) to the immobilized IgG was measured. […] Octet kinetic analysis software was used to calculate the kinetic and equilibrium binding constants from the rate of association and dissociation curves. The analysis was performed using global curve fit where kinetic constants were derived simultaneously from all analyte concentration included in the experiment.

Assay [2] concerns the target T3, PD-L1 on PD-L1 overexpressing CHO-K1 cells (Homo sapiens (Human), UniProt Q9NZQ7 19-290). Kind of assay: cell-based or functional assay.
Assay [3] deals with T3, PD-L1 on PD-L1 overexpressing CHO-K1 …. The experiment in a line: flow cytometry on PD-L1 CHO-K1 cells. As for the experimental part: (§1) Cells were harvested at 70-90% confluence on the day of the assay. Cells were collected by centrifugation at 200×g for 5 minutes and media was removed. Cells were resuspended at 2×10⁶ cells per mL in cold PBS. […] 50 μL per well of the antibody dilution was plated in a 96 well V-bottom plate (Costar 3897). 50 μL per well of cell suspension was added. Plates were placed at 4° C. for 45-60 minutes.
(§2) Cells were collected by centrifugation at 400×g for 7 minutes and primary antibody was removed. […] Plates were placed at 4° C. for 30 minutes.
(§3) Cells were collected by centrifugation at 400×g for 7 minutes and secondary antibody was removed. Cells were resuspended in 50 μL per well of PBS and analyzed by flow cytometry. Binding curves were calculated using the mean fluorescence intensity (MFI) of the FITC fluorescence signal on the cells.
In general terms: In flow cytometry, cells or beads pass a laser one at a time.

Assay [4] shares this target. The experiment in a line: flow cytometry on PD-L1 overexpressing CHO-K1 cells, AF488 goat anti human IgG Fab secondary, MFI. As for the experimental part:
as §1, §2, §3

The target is the same in assay [5]. Kind of assay: cell-based or functional assay. This is another data set of the same source.

T3 sequence (Q9NZQ7 19-290 limits assumed): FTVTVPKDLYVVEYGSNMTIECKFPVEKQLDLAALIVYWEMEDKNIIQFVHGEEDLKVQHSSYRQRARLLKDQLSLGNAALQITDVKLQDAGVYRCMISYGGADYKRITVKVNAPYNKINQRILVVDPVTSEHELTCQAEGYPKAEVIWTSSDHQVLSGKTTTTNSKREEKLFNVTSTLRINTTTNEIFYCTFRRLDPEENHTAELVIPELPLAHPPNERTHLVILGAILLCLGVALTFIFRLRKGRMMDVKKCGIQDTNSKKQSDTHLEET
T1 sequence (Q9EP73 19-238 limits assumed): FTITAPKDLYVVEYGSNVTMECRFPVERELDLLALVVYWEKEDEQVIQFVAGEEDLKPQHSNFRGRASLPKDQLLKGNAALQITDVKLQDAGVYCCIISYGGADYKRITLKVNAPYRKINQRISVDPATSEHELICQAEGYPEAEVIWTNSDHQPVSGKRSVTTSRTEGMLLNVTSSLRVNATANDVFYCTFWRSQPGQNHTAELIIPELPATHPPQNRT

B1: antibody designated P22 (antibody, human IgG1, kappa, V domains shown)
VH: EVQLVESGGGLVQPGGSLRLSCAASGFTFSSYYIHWVRQAPGKGLEWVAWITSHGYSTKYADSVKGRFTISADTSKNTAYLQMNSLRAEDTAVYYCARDSVIYGLDYWGQGTLVTAST
VL: DIQMTQSPSSLSASVGDRVTITCRASQSVSSAVAWYQQKPGKAPKLLIYSASSLYSGVPSRFSGSRSGTDFTLTISSLQPEDFATYYCQQYYTSPYTFGQGTKVEIKR
notes: Tested as full length IgG
Take B1: in the assay with Mouse PD-L1, the binding result is given as “no binding”. In addition, in assay [1], the KD (usually the equilibrium constant for the complex coming apart) is less than 20 nM and the Kd (usually a measure of binding affinity in units of concentration) turned out to be 17.2 nM. In addition, in assay [2], the “PD-1/PD-L1 Interaction Blocking Reporter Assay IC50” value came to 2.43 nM. In addition, the EC50 (commonly the concentration at which the effect is half-maximal) in assay [3] is 0.523 nM.

B2: antibody designated P24 (antibody, human IgG1, kappa, V domains shown)
VH: EVQLVESGGGLVQPGGSLRLSCAASGFTFDQYYIHWVRQAPGKGLEWVAEIYPAGSYTYYADSVKGRFTISADTSKNTAYLQMNSLRAEDTAVYYCARGPYSVRYALDYWGQGTLVTAST
VL: DIQMTQSPSSLSASVGDRVTITCRASQSVSSAVAWYQQKPGKAPKLLIYSASSLYSGVPSRFSGSRSGTDFTLTISSLQPEDFATYYCQQVSYSPYTFGQGTKVEIKR
notes: Tested as full length IgG
With B2, in the assay with Mouse PD-L1, the binding result is given as “no binding”. Moreover, the EC50 (read off the curve) (usually the concentration at which the effect is half-maximal) in assay [4] is roughly 2 nM. In assay [1], this molecule displayed a KD of less than 20 nM and a Kd of 17.5 nM. The “PD-1/PD-L1 Interaction Blocking Reporter Assay IC50” value in assay [2] was determined as 4.98 nM. In addition, the EC50 in assay [3] was 1.62 nM.

B3: antibody designated P31.2 (antibody, human IgG1, kappa, V domains shown)
VH: EVQLVESGGGLVQPGGSLRLSCAASGFTFSSYYIHWVRQAPGKGLEWVATISSGGGFTYYADSVKGRFTISADTSKNTAYLQMNSLRAEDTAVYYCARGYTLTPVLDYWGQGTLVTAST
VL: DIQMTQSPSSLSASVGDRVTITCRASQSVSSAVAWYQQKPGKAPKLLIYSASSLYSGVPSRFSGSRSGTDFTLTISSLQPEDFATYYCQQFGAEPITFGQGTKVEIKR
notes: Tested as full length IgG
In the case of B3, the binding result with Mouse PD-L1 is reported as “no binding”. Besides, the “IC50 (read off the curve)” value in assay [5] is roughly 2 nM. In assay [1], this molecule displayed a KD of less than 20 nM and a Kd of 13 nM. Moreover, in assay [2], the “PD-1/PD-L1 Interaction Blocking Reporter Assay IC50” value was found to be 1.23 nM. In assay [3], this molecule gave an EC50 of 0.552 nM.
